“And” between values parts separate entries of the source, which are not always exact repeats. Equal values may be shown once.
Target: nitrogenase MoFe-protein (Azotobacter vinelandii) (UniProt P07328)
Assay: cryo-EM structure; single particle cryoEM of the ADP-AlF4- stabilized complex of the two nitrogenase proteins; grids prepared anaerobically in the vinyl tent; carbon-layered grids

UniProt P07328, sequence (P07328 whole entry, chain 1 of 2): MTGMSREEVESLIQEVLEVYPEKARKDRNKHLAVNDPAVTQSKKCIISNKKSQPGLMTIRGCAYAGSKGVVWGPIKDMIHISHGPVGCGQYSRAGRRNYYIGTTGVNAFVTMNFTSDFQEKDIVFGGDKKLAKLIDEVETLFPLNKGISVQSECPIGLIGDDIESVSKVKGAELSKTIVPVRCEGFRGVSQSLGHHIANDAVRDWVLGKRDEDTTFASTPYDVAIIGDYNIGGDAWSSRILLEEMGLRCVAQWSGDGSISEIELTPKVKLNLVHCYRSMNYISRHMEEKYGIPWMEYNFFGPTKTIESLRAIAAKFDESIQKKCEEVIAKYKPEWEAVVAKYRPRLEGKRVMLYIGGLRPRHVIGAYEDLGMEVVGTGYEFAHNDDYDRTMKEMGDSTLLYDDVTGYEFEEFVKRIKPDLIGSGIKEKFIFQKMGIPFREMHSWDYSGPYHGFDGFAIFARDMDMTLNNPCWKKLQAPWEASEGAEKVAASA
UniProt P07328, sequence (P07329 whole entry, chain 2 of 2, further chain): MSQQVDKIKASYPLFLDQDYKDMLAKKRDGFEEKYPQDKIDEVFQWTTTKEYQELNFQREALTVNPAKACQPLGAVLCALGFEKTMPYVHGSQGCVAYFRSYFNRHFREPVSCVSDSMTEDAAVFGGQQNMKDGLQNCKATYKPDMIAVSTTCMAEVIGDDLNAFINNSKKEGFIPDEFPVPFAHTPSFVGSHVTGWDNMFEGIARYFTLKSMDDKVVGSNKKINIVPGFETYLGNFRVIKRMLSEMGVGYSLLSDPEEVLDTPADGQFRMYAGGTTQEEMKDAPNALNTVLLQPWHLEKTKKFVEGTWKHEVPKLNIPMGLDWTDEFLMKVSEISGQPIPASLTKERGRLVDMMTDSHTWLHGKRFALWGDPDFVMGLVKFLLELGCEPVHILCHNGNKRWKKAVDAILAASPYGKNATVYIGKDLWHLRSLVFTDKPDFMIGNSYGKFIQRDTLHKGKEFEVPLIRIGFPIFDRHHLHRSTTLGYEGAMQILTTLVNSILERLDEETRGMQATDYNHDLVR

## nitrogenase Fe-protein (enzyme)
  stoichiometry N (Fe-protein:MoFe-protein): 2 and 1

— publication PMC11528890
